# Experimental data as given in doi:10.1101/2020.06.27.175620 (bioRxiv, 2020).
# B1: cytochrome b of CIII2 (natural protein, Rhodobacter capsulatus)
# chain: MSGIPHDHYEPKTGIEKWLHDRLPIVGLVYDTIMIPTPKNLNWWWIWGIVLAFTLVLQIVTGIVLAMHYTPHVDLAFASVEHIMRDVNGGWAMRYIHANGASLFFLAVYIHIFRGLYYGSYKAPREITWIVGMVIYLLMMGTAFMGYVLPWGQMSFWGATVITGLFGAIPGIGPSIQAWLLGGPAVDNATLNRFFSLHYLLPFVIAALVAIHIWAFHTTGNNNPTGVEVRRTSKADAEKDTLPFWPYFVIKDLFALALVLLGFFAVVAYMPNYLGHPDNYVQANPLSTPAHIVPEWYFLPFYAILRAFAADVWVVILVDGLTFGIVDAKFFGVIAMFGAIAVMALAPWLDTSKVRSGAYRPKFRMWFWFLVLDFVVLTWVGAMPTEYPYDWISLIASTYWFAYFLVILPLLGATEKPEPIPASIEEDFNSHYGNPAE
# Experiments:
# [1] = biological target: the molecule itself; experiment: cryo-EM structure
# [2] = biological target: B1; experiment: cryo-EM structure
binder,measurement,setting,value
B1,binding result,[1],binds
"Rieske FeS protein of CIII2 (natural protein, Rhodobacter capsulatus) MSHAEDNAGTRRDFLYHATAATGVVVTGAAVWPLINQMNASADVKAMASIFVDVSAVEVGTQLTVKWRGKPVFIRRRDEKDIELARSVPLGALRDTSAENANKPGAEATDENRTLPAFDGTNTGEWLVMLGVCTHLGCVPMGDKSGDFGGWFCPCHGSHYDSAGRIRKGPAPRNLDIPVAAFVDETTIKLG",binding result,[2],binds
